The values below come from patent US20100196390A1 (RINAT NEUROSCIENCE, published 2010).

The experiment has as its target TrkB (Homo sapiens (Human), UniProt Q16620 32-430). In words: koff of Fab at 25 C; T1/2=Log2/koff. Summed up: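 Monovalent Fab fragments were tested at 25° C by surface plasmon resonance on a Biacore instrument, against TrkB extracellular-domain monomer amine-coupled to the chip at low capacity. Fabs were injected low to high as a 3-fold serial dilution from 100 nM for 84 sec, with a 10 minute dissociation after the top sample. The dissociation half-life was calculated from koff, which was fitted to a Langmuir binding model in BIAevaluation. The formula used was T1/2 = Log 2/koff.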

Numbering of substitutions follows the chain as printed.

Sequence of TrkB (Q16620 32-430 limits assumed): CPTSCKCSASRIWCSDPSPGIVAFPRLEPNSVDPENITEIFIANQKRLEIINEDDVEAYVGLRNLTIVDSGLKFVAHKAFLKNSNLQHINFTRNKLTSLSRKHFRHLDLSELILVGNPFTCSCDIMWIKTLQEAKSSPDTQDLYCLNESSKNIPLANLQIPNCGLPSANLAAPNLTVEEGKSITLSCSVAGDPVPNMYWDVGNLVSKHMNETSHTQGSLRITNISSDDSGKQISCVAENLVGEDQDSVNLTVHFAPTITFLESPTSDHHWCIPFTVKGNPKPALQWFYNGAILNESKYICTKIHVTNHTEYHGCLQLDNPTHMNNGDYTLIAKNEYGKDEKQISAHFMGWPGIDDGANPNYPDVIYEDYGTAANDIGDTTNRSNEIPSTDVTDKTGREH

B1: 6-D12 (Fab, V domains shown)
VH: QVQLVQSGAEVKKPGASVKVSCKASGYTFTNYVILWVRQAPGQGLEWMGYINPYNDGTKYNEKFKGRVTMTRDTSTSTVYMELSSLRSEDTAVYYCARLLKYRRFRYYAIDYWGQGTTVTVSS
VL: DIQMTQSPSSLSASVGDRVTITCRASENVYSNLAWYQQKPGKAPKLLIYAASNLQSGVPSRFSGSGSGTDFTFTISSLQPEDIATYYCQHFWASPFTFGQGTKLEIK
notes: Fab
Regarding B1, the T1/2 is 1.7 min.

B2: 10-G2 (Fab, V domains shown)
VH: B1 VH with V33D, L35I, D56G, G57R, T58R, K59E
VL: B1 VL with N28A, A93G
notes: Fab
For the molecule B2, the T1/2 was found to be 5.2 min.

B3: 11-C7 (Fab, V domains shown)
VH: B1 VH with V33D, L35I, D56R, G57R, T58I, K59E
VL: B1 VL with N32H, A93G
notes: Fab
B3 yielded a T1/2 of 4.9 min.

B4: 8-C8 (Fab, V domains shown)
VH: B1 VH
VL: B1 VL with A93Y, T97G
notes: Fab
In the case of B4, the T1/2 amounted to 1.78 min.

B5: 11-G2 (Fab, V domains shown)
VH: B1 VH with V33D, L35I, T58R, Y60E
VL: B1 VL with A93D
notes: Fab
In turn, B5 had a T1/2 of 1.5 min.

B6: 7-D1 (Fab, V domains shown)
VH: B1 VH with R106S, Y112V
VL: B1 VL with A93Y, S94L
notes: Fab
As to B6, the T1/2 came out at 0.7 min.

B7: 10-G3 (Fab, V domains shown)
VH: B1 VH with V33D, L35I, D56E, G57R, K59E
VL: B1 VL with S31R, A50I, W92V, A93Y
notes: Fab
Turning to B7, the T1/2 turned out to be 4.8 min.

B8: 11-F9 (Fab, V domains shown)
VH: B1 VH with V33D, L35I, T58R, Y60E
VL: B1 VL with S31R, A93Y
notes: Fab
B8 had a T1/2 of 6.2 min.

B9: 10-B9 (Fab, V domains shown)
VH: B1 VH with V33D, L35I, T58R, Y60E
VL: B1 VL with N28P, A93G
notes: Fab
B9 displayed a T1/2 of 4 min.

B10: 12-C8 (Fab, V domains shown)
VH: B1 VH with V33D, L35I, D56G, G57R, T58R, K59E
VL: B1 VL with E27K, A93G
notes: Fab
In the case of B10, the T1/2 was 8 min.

B11: 9-G8 (Fab, V domains shown)
VH: B1 VH with R106S
VL: B1 VL with A93Y, T97W
notes: Fab
As for B11, the T1/2 is 1.13 min.

B12: 10-A7 (Fab, V domains shown)
VH: B1 VH with V33D, L35I, D56G, G57R, T58R, K59E
VL: B1 VL with N32H, A93Y
notes: Fab
On to B12, for which the T1/2 turned out to be 3 min.

B13: 11-B9 (Fab, V domains shown)
VH: B1 VH with V33D, L35I, D56G, G57R, T58R, K59E
VL: B1 VL with E27T, S31R, A93G
notes: Fab
For B13, the T1/2 was 4.9 min.

B14: 8-H7 (Fab, V domains shown)
VH: B1 VH with R106S, Y107F
VL: B1 VL with W92V, A93Y
notes: Fab
B14: the T1/2 amounted to 1.18 min.

B15: 9-D11 (Fab, V domains shown)
VH: B1 VH with R106K
VL: B1 VL with A93M
notes: Fab
Regarding B15, the T1/2 was determined as 1.55 min.

B16: 12-A8 (Fab, V domains shown)
VH: B1 VH with V33D, L35I, T58R, Y60E
VL: B1 VL with A93G
notes: Fab
In the case of B16, the T1/2 was found to be 3.3 min.

B17: 8-B2 (Fab, V domains shown)
VH: B1 VH
VL: B1 VL with W92Y, A93Y
notes: Fab
Regarding B17, the T1/2 turned out to be 1.46 min.

B18: 11-D8 (Fab, V domains shown)
VH: B1 VH with V33D, L35I, D56G, G57R, T58R, K59E
VL: B1 VL with E27T, A93G
notes: Fab
In turn, B18 gave a T1/2 of 2.5 min.

B19: 10-C10 (Fab, V domains shown)
VH: B1 VH with V33D, L35I, D56G, G57R, T58R, K59E
VL: B1 VL with S31R, W92V, A93Y
notes: Fab
In turn, B19 gave a T1/2 of 4.3 min.

B20: 11-B11 (Fab, V domains shown)
VH: B1 VH with V33D, L35I, D56G, G57R, T58R, K59E
VL: B1 VL with N28P, A93G
notes: Fab
Take B20: the T1/2 was determined as 5.5 min.

B21: 7-F1 (Fab, V domains shown)
VH: B1 VH
VL: B1 VL with H90N, A93Y
notes: Fab
B21 came in with a T1/2 of 0.54 min.

B22: 10-A5 (Fab, V domains shown)
VH: B1 VH with V33D, L35I
VL: B1 VL with N28T, A93G
notes: Fab
B22 came in with a T1/2 of 1 min.

B23: 11-G5 (Fab, V domains shown)
VH: B1 VH with V33D, L35I, D56G, G57R, T58R, K59E
VL: B1 VL with S31Y, A93Y
notes: Fab
Consider B23, for which the T1/2 worked out at 5.9 min.

B24: 12-C9 (Fab, V domains shown)
VH: B1 VH with V33D, L35I, D56G, G57R, K59E
VL: B1 VL with E27K, H90Q, A93Y
notes: Fab
For the molecule B24, the T1/2 worked out at 0.8 min.

B25: 8-G2 (Fab, V domains shown)
VH: B1 VH with Y107F
VL: B1 VL with W92G, A93Y, T97I
notes: Fab
Molecule B25 registered a T1/2 of 1.88 min.

B26: 7-B9 (Fab, V domains shown)
VH: B1 VH with R106S, Y112V
VL: B1 VL with A93Y, F96W
notes: Fab
B26 came in with a T1/2 of 1.79 min.

B27: 11-G10 (Fab, V domains shown)
VH: B1 VH with V33D, L35I, D56G, G57R, T58R, K59E
VL: B1 VL with A93G
notes: Fab
For the molecule B27, the T1/2 was determined as 3 min.

B28: 10-E10 (Fab, V domains shown)
VH: B1 VH with V33D, L35I, T58R, Y60E
VL: B1 VL with A93G
notes: Fab
B28: the T1/2 came to 2.7 min.

B29: 9-D9 (Fab, V domains shown)
VH: B1 VH
VL: B1 VL with A93Y, T97A
notes: Fab
For B29, the T1/2 was 1.54 min.

B30: 12-B5 (Fab, V domains shown)
VH: B1 VH with V33D, L35I, D56R, G57R, T58I, K59E
VL: B1 VL with N32H, F71Y, A93G
notes: Fab
In turn, B30 yielded a T1/2 of 10 min.

B31: 10-C7 (Fab, V domains shown)
VH: B1 VH with V33D, L35I, Y50H, D56G, G57R, T58R, K59E
VL: B1 VL with N28S, W92V, A93Y
notes: Fab
For B31, the T1/2 was found to be 4.1 min.

B32: 10-D11 (Fab, V domains shown)
VH: B1 VH with V33D, L35I, D56G, G57R, T58R, K59E
VL: B1 VL with S31R, A93Y
notes: Fab
Take B32: the T1/2 amounted to 4.2 min.

B33: 11-D7 (Fab, V domains shown)
VH: B1 VH with V33D, L35I, D56G, G57R, T58R, K59E
VL: B1 VL with S31R, A93G
notes: Fab
In turn, B33 registered a T1/2 of 4.1 min.

B34: 7-B8 (Fab, V domains shown)
VH: B1 VH
VL: B1 VL with A93Y, F96C
notes: Fab
Molecule B34 had a T1/2 of 1.18 min.

B35: 10-F7 (Fab, V domains shown)
VH: B1 VH with V33D, L35I, D56G, G57R, T58R, K59E
VL: B1 VL with N32H, W92V, A93Y
notes: Fab
B35 gave a T1/2 of 4.9 min.

B36: 10-F10 (Fab, V domains shown)
VH: B1 VH with V33D, L35I, T58R, Y60E
VL: B1 VL with S31L, A93G
notes: Fab
Regarding B36, the T1/2 worked out at 4.1 min.

B37: 8-D2 (Fab, V domains shown)
VH: B1 VH with R106S, I110A
VL: B1 VL with H90N, A93Y
notes: Fab
Consider B37, for which the T1/2 amounted to 1.81 min.

B38: 6-H12 (Fab, V domains shown)
VH: B1 VH with R106S
VL: B1 VL with A93H
notes: Fab
B38 displayed a T1/2 of 1.54 min.

B39: 7-C11 (Fab, V domains shown)
VH: B1 VH with R106S
VL: B1 VL with W92K, A93Y
notes: Fab
Consider B39, for which the T1/2 came to 1.07 min.

B40: 11-C6 (Fab, V domains shown)
VH: B1 VH with V33D, L35I, D56G, G57R, T58R, K59E
VL: B1 VL with E27S, F71Y, A93G
notes: Fab
Molecule B40 displayed a T1/2 of 10.8 min.

B41: 6-E10 (Fab, V domains shown)
VH: B1 VH with R104P, R106S
VL: B1 VL with W92S, A93L
notes: Fab
As for B41, the T1/2 was determined as 1.3 min.

B42: 7-B1 (Fab, V domains shown)
VH: B1 VH
VL: B1 VL with A93Y, T97K
notes: Fab
For B42, the T1/2 was found to be 0.81 min.

B43: 10-F12 (Fab, V domains shown)
VH: B1 VH with V33D, L35I, D56G, G57R, T58R, K59E
VL: B1 VL with S31R, A93G
notes: Fab
For B43, the T1/2 was determined as 5.7 min.

B44: 9-D6 (Fab, V domains shown)
VH: B1 VH with R106S, Y112V
VL: B1 VL with W92S, A93Y
notes: Fab
B44 came in with a T1/2 of 1.45 min.
